Values belong to the binder of their own block, whether it stands above or below them.
Columns and labels:
[1] = biological target: T1, fusion protein of MBP and TMPRSS11E SEA domain (human, UniProt Q9UL52 42-191); assay: screening ELISA on immobilized MBP-SEA domain fusion protein
T1 construct: Expressed in E. coli, purified and immobilized for the screening ELISA; also called fusion proteins of MBP and SEA domains
T1 sequence: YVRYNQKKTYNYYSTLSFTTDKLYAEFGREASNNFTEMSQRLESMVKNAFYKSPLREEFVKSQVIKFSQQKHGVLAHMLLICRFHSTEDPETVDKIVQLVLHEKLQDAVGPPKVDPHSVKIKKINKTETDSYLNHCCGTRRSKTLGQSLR
Protocol: This fusion protein was used to immunize Balb/c mice or MRL/lpr mice. Hybridomas were established in the same way as above. New England Biolabs Inc. pMALc2x vectors were used in screening, which was performed by ELISA using fusion proteins of MBP and SEA domains that were expressed in E. coli, then purified, and immobilized on a solid phase. […] The nucleotide sequence of the EA230 heavy chain variable region is shown in SEQ ID NO: 53, and its amino acid sequence is shown in SEQ ID NO: 54. The nucleotide sequence of the EA230 light chain variable region is shown in SEQ ID NO: 55, and its amino acid sequence is shown in SEQ ID NO: 56.

[2] = biological target: T2, human TMPRSS11E, full-length, forced expression on cells (DG44, Ba/F3, SK-Hep-1) (human, UniProt Q9UL52 1-423); assay: immunoblot of BaF/TMPRSS11E cell lysate, 0.5 ug/mL EA230 (FIG. 7)
T2 construct: also called DESC1; BaF/TMPRSS11E; not shown: C-terminal tag added through the antisense primer
T2 sequence: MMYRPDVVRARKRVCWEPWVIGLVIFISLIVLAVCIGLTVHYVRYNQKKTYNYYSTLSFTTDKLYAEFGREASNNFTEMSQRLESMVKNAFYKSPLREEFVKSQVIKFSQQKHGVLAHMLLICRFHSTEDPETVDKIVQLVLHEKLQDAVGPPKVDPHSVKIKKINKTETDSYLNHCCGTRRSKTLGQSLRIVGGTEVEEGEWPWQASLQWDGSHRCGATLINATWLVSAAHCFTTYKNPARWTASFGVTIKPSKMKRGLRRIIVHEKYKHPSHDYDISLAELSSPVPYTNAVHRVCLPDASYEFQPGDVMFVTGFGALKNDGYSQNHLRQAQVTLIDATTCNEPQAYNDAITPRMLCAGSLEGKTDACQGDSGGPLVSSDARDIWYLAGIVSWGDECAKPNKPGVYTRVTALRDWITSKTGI
Protocol: (§1) Cell lysates of Ba/F3, TMPRSS11E-expressing Ba/F3 (BaF/TMPRSS11E), a TMPRSS11E-negative cancer cell line VMRC-LCD, and TMPRSS11E-positive cancer cell lines h2009 and ME-180 were prepared. 50 μL of NP-40 Lysis Buffer (0.5% (v/v) Nonidet P40, 20 mM Tris-HCl (pH 7.5), 150 mM NaCl, 5 mM EDTA) was added to 1×10⁶ cells and left at 4° C. for 15 minutes. Then, after centrifugation (14,000 rpm, 15 min), the supernatant was used as lysates. The lysates corresponding to 2×10⁵ cells were separated by SDS-PAGE and then transferred to Immobilon-P (Millipore Corp.) using Trans-Blot SD Semi-Dry Electrophoretic Transfer Cell (Bio-Rad Laboratories, Inc.). The membrane was gently washed with TBS-T (0.05% Tween 20, TBS) and then shaken for 1 hour in TBS-T containing 5% skim milk. After shaking for approximately 10 minutes in TBS-T, 0.5 μg/mL EA230 antibodies diluted with TBS-T containing 1% skim milk were added to the membrane, which was then shaken for 1 hour. […] Since the presumed molecular weight of TMPRSS11E is 47.7 kDa, it seemed that TMPRSS11E that underwent sugar chain modification was probably detected. This means that TMPRSS11E can be detected specifically by immunoblot using EA230.

[3] = biological target: T3, human TMPRSS11E, endogenous, on cancer cell lines and in clinical cancer tissues (human, UniProt Q9UL52 1-423); assay: immunoblot of lysates of cancer cell lines (h2009, ME-180), 0.5 ug/mL EA230 (FIG. 7)
T3 construct: Endogenous protein of h2009, h2087, ME-180 and colo201 cells and of lung, uterine cervix and esophagus cancer tissue sections; also called DESC1
T3 sequence: T2 sequence
Protocol: as §1

[4] = biological target: T3, human TMPRSS11E, endogenous, on cancer …; assay: flow cytometry on cancer cell lines h2009, h2087, ME-180, colo201 (FIG. 3)
Protocol: (§2) The TMPRSS11E-constantly expressing cells thus constructed were evaluated for binding to the parental strain thereof by flow cytometry. The anti-TMPRSS11E antibody diluted to an appropriate concentration was added to cells corresponding to 5×10⁵ and reacted for 1 hour on ice. The cells were washed by centrifugation. Then, FITC-labeled anti-human IgG antibodies were added thereto and reacted for 1 hour on ice. The cells were washed by centrifugation and then suspended in a medium containing 2 μg/mL propidium iodide, and the suspension was applied to FACS Calibur (Becton, Dickinson and Company). […] The chimeric antibodies and low-fucose chimeric antibodies had equivalent avidity. Next, avidity to various cancer cell lines was evaluated by flow cytometry.

[5] = biological target: T2, human TMPRSS11E, full-length, forced …; assay: flow cytometry on TMPRSS11E-expressing Ba/F3 cells, FITC anti-human IgG detection (FIG. 2)
Protocol: as §2

[6] = biological target: T2, human TMPRSS11E, full-length, forced …; assay: flow cytometry on TMPRSS11E-expressing SK-Hep-1 cells (FIG. 9)

B2: chi.TM191 (FTKO), low-fucose anti-TMPRSS11E mouse-human chimeric antibody (antibody, human IgG1, kappa, V domains shown)
VH: EVKLVESGGGLVKPGGSLKLSCAASGFTFSDYGMAWVRQAPGKGPEWVAFISNLAYSSYYADTVTGRFTISRENAKNTLYLEMSSLRSEDSAMYYCARRIFDYDGDGPYEDYWGQGTSVTVSS
VL: QIVLTQSPAIMSASPGEKVTLTCSATSSVSSRYVHWYQQKSGASPKLWIYGTSNLASGVPARFSGSGSGTSYSLTISSVEAEDAATYYCQQYHNDPPTFGAGTKLELKR
modifications: sugar chain free from alpha-1,6 core-fucose (produced in CHO_FTKO cells)
notes: also called low-fucose chimeric TM191
binding result [4]: binds
binding result [5]: binds

B4: chi.TM191 (DG), anti-TMPRSS11E mouse-human chimeric antibody (antibody, V domains shown)
VH: B2 VH
VL: B2 VL
notes: Human IgG1/kappa constant regions, produced in DG44 CHO cells; also called chimeric TM191
binding result [4]: binds
binding result [5]: binds

Further lines, results first:

binding result [1]: binds
binding result [2]: binds
binding result [3]: binds
B1: EA230 (mouse hybridoma antibody) (antibody, V domains shown)
VH: EVKLEESGGALVQPGGSMKLSCVASGFTVSNYWMSWVRQSPEKGLEWVAEVRLKSNNYVTHYAESVKGRFTISRDDSKSSVYLQMNNLRPEDTGIYYCTPFAYWGQGTLVTVSA
VL: QIVLTQSPAILSASPGEKVTLTCSANSSVSSSYLYWHQQKPGSSPKLWIYRTSKLASGVPARFSGSGSGTSYSLTISSMEAEDAASYFCHQWDTYPPTFGGGTKLEIK

binding result [6]: binds
B3: TM191 (mouse hybridoma antibody) (antibody, V domains shown)
VH: B2 VH
VL: QIVLTQSPAIMSASPGEKVTLTCSATSSVSSRYVHWYQQKSGASPKLWIYGTSNLASGVPARFSGSGSGTSYSLTISSVEAEDAATYYCQQYHNDPPTFGAGTKLELK
notes: Mouse IgG1 kappa

— US20120128678A1 (FORERUNNER PHARMA RESEARCH, published 2012)
